Laboratory results published in US20190127480A1 (Regeneron, published 2019).
Blank lines part the entries; values can stand above or below the binder they belong to.

Experiments:
[1] = target: T1, human CD3 on CD3-expressing cells (Jurkat, human T cells) (human, UniProt P07766 23-207; P04234 22-171); test: FACS titration of Jurkat cells
T1 construct: On cells CD3 stands within the T cell receptor complex (also gamma and zeta chains); also called human CD3 expressing Jurkat cells

[2] = target: T2, cynomolgus CD3 on cynomolgus T cells (cynomolgus, UniProt Q95LI5 22-198; Q95LI8 22-171); test: FACS titration of cynomolgus T cells
T2 construct: whole, on cells; also called Cyno T-cells; monkey T-cells

[3] = target: T3, human PSMA on PSMA-expressing cells (human, UniProt Q04609 1-750); test: FACS on 22RV1 cells
T3 construct: Cell line is named under assay or readout in each row; also called B16F10.9/hPSMA; B16F10.9/PSMA
Method: Briefly, 2×10⁵ cells/well of human CD3-expressing Jurkat, cynomolgus T, or human PSMA-specific expressing cells were incubated with a serial dilution of bispecific antibodies for 30 min at 4° C. After incubation, cells were washed and a goat F(ab′)₂ anti-human Fcγ PE labeled secondary (Jackson Immunolabs) was added to the cells for an additional 30 min. Next, cells were washed, re-suspended in cold PBS+1% BSA and analyzed via flow cytometry on a BD FACS Canto II.
For FACS analysis, cells were gated by forward scatter height vs. forward scatter area for single events selection, followed by side and forward scatters. The EC₅₀ for cell binding titration was determined using Prism software. Values were calculated using 4-parameter non-linear regression analysis.

[4] = target: T1, human CD3 on CD3-expressing cells …; test: FACS on Jurkat cells
Procedure, shortened: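 Jurkat (human CD3), cynomolgus T or PSMA-expressing cells (2×10⁵/well) incubated 30 min at 4° C with serially diluted bispecific antibodies, then 30 min with PE anti-human Fcγ F(ab′)₂. Single-cell gated flow cytometry; EC₅₀ from 4-parameter non-linear regression.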

[5] = target: T4, cynomolgus monkey CD3 expressed on monkey T-cells (PBMCs) (cynomolgus monkey, UniProt Q95LI5 22-198; Q95LI8 22-171); test: cell-based or functional assay
[6] = target: T4, cynomolgus monkey CD3 expressed on …; test: FACS titration on monkey PBMCs, gated on CD2+CD4+ T cells
Method: FACS data was acquired using the following protocol: Cells at 2×10⁵ per well were incubated with serially diluted antibodies for 30 min on ice. Post incubation, cells were washed and secondary antibodies were added and incubated for an additional 30 minutes. After incubation, cells were washed, re-suspended in cold PBS containing 1% BSA and analyzed by flow cytometry. CD4+ monkey T cells were gated by side and forward scatters, and on the CD2+CD4+CD20− population. The EC₅₀s for cell binding titration were calculated using a 4-parameter non-linear regression analysis in GraphPad Prism.

T1 sequence (P07766 23-207 limits assumed, chain 1 of 2): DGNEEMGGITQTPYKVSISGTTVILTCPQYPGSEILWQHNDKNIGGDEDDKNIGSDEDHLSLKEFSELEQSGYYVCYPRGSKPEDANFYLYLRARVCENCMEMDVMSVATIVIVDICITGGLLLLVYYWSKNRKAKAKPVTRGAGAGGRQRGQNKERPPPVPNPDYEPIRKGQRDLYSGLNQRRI
T1 sequence (P04234 22-171 limits assumed, chain 2 of 2): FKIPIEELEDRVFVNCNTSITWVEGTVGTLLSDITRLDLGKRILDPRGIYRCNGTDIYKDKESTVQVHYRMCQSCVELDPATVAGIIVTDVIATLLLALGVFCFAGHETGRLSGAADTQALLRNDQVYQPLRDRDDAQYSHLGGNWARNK
T4 sequence (Q95LI5 22-198, chain 1 of 2): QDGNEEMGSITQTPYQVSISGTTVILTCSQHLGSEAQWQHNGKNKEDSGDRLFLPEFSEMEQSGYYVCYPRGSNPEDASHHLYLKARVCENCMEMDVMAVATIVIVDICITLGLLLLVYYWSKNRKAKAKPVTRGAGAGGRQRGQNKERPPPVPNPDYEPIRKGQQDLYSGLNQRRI
T4 sequence (Q95LI8 22-171, chain 2 of 2): as the sequence (P04234 22-171 limits assumed, chain 2 of 2) above, with I5V, N15K, I20V, S32T, D33N, I34N, T64A, S74N, V83L, H141R counted along it
T2 sequence (Q95LI5 22-198, form in doubt, chain 1 of 2): as the sequence (Q95LI5 22-198, chain 1 of 2) above
T2 sequence (Q95LI8 22-171, form in doubt, chain 2 of 2): as the sequence (P04234 22-171 limits assumed, chain 2 of 2) above, with I5V, N15K, I20V, S32T, D33N, I34N, T64A, S74N, V83L, H141R counted along it
T3 sequence (Q04609 whole entry): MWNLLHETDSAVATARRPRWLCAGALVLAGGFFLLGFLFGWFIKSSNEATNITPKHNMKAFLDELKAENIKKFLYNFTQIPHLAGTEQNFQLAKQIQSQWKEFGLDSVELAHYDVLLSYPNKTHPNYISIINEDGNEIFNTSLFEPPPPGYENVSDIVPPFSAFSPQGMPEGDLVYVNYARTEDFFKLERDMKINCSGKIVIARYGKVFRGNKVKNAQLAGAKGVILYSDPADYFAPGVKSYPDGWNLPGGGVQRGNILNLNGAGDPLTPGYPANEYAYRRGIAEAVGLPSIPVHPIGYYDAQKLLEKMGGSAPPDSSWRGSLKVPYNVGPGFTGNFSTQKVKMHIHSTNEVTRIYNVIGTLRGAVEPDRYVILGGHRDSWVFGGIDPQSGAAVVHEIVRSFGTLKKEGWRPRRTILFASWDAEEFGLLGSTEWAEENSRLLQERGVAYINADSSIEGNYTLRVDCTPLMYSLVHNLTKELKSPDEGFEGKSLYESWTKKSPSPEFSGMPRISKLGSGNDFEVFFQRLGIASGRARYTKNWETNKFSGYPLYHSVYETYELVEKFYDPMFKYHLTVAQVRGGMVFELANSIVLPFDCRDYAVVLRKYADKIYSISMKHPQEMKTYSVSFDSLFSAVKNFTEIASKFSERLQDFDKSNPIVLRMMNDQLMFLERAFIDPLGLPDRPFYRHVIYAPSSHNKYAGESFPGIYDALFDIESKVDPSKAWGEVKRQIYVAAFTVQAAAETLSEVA

EC50 [1]: 1 to 40 nM
EC50 [2]: 1 to 40 nM
B1: CD3-VH-P (antibody, V domains shown)
VH: EVQLVESGGGLVQPGRSLRLSCVASGFTFDDYSMHWVRQAPGKGLEWVSGISWNSGSKDYADSVKGRFTISRDNAKNSLYLQMNSLRAEDTALYYCAKYGSGYGKFYHYGLDVWGQGTTVTVSS
VL: DIQMTQSPSSLSASVGDSVTITCRASQSINNYLNWYQQKPGKAPKLLIYTASSLLSGVPSRFSGSGSGTDFTLTISGLHPEDFATYFCQQSFSTPPITFGQGTRLDIK
notes: also called CD3 antibody designated CD3-VH-P

EC50 [3]: 78.5 nM
EC50 [4]: 39.1 nM
B2: BSPSMA/CD3-001 (bispecific antibody, IgG4, V domains shown)
VH 1: QVQLVESGGGVVQPGRSLRLSCAASGFTFITYGMHWVRQAPGKGLEWVAIIYYDESNKYYADSVKGRFTISRDISKNTLYLQMNGLRAEDTAVYYCARAPRVAVEEDYSYYYGMDVWGQGTTVTVSS
VH 2: EVQLVESGGGLVQPGRSLRLSCVASGFTFADFTMHWVRQAPGKGLEWVSGISWNSNSIDYADSVKGRFTISRDNAKKSLFLQMSSLRAEDTALYYCVKDRSGYSRFYYGMDVWGQGTTVTVSS
VL: EIVMTQSPATLSVSPGERAILSCRASQNINSNLAWYQQKPGQAPRLLIYGASTRATGVPARFSGSGSGTEFTLTIRSLQSEDFAVYYCQQYYNWPITFGHGTRLEIK
notes: modified (chimeric) IgG4 Fc domain as in US20140243504A1; also called PSMA-VH-3465 x CD3-VH-A, CD3-VL-A

EC50 [M] mfPBMC Proliferation [5]: 2.72e-12 M
EC50 [6]: 2.29 nM
B3: H1H2712N (antibody, human IgG1, V domains shown)
VH: EVQLVESGGGLVQPGGSLRLSCAATGFTFDDFTMHWVRQAPGKGLEWVSGISWNSGSIGYVDSVKGRFTISRDNAKNSLYLQMNSLRAEDTALYYCAKDNSGYGYYYYGMDVWGQGTTVTVSS
VL: EIVMTQSPATLSVSPGERATLSCRASHSVSRNSAWYQQKPGQAPRLLIYGASTRATGIPARFSGSGSGTEFTLTISSLQSEDFAIYYCQQYNNWPLTFGGGTKVEIK
notes: H1H: human IgG1 Fc
